Reference: US20090074770A1

How the values were obtained:
[1] = target: human serum albumin (human) (UniProt P02768); assay: SPR (Biacore T100), serum albumin immobilized on CM5 chip, running buffer pH 7, 25 C
[2] = target: human serum albumin (human) (UniProt P02768); assay: SPR (Biacore), ratio of off rates at pH 7 and pH 5
[3] = target: human serum albumin (human) (UniProt P02768); assay: SPR (Biacore T100), serum albumin immobilized on CM5 chip, running buffer pH 5, 25 C

| koff [1] | Ratio pH 7/pH 5 [2] | koff [3] | Binder |
| --- | --- | --- | --- |
| 0.00565 s⁻¹ | 2.42 | 0.0137 s⁻¹ | Nanobody 4D3 (VHH, from a related filing) VHH: EVQLVKSGGGLVQPGGSLRLSCAASGFTFSHYQMSWVRQAPGKDVEWVSSISMLGGGTTYADSVKGRFTISRDNAKSTLVLQMNNLKVEDTAVYYCARGFSGNYYRADLGQGTQVTVSS |
| 0.00642 s⁻¹ | 3.54 | 0.0227 s⁻¹ | Nanobody 4A2 (VHH, from a related filing) VHH: EVQLVESGGGLVQAGGSLRLSCAASGLSFSSYAMGWFRQAPGKEREFVAAIRRREGNSYYADSVKGRFTISRDSAKNTVYLQMNSLKPEDTALYSCAATAPHYSGSFAYAGGYDYWGQGTQVTVSS |
